Test results as given in CN113388028A (SHENZHEN FUTIAN GEWU ZHIKANG PATHOGEN RES INSTITUTE; …, dated 2021).

B1: 重组抗体8B4 (antibody, V domains shown)
VH: EVQLVQSGAEVKKPGSSVKVSCKASGGTFSSFSISWVRQAPGQGLEWMGRIIPVLGIANYAQEVQGRVTITADKSTSTAYMELSSLRSEDTAVYFCTTDRFVEPATGPFFDYWGQGTLVTVSS
VL: EIVMTQSPATLSVSPGERATLSCRASQSVSSNLAWYQQKPGQAPRLLIYGASTRATGIPARFSGSGSGTEFTLTISSLQSEDFAVYYCQQYSNWLTFGGGTKVEIK
notes: also called 8B4-Biotin
B2: 重组抗体24G8 (antibody, V domains shown)
VH: EVQLVESGGGLVKPGGSLRLSCAASGFTFSSYSMNWVRQAPGKGLEWVSSISSSSSFIYYADSVKGRFTISRDNAKNSLYLQMNSLRAEDTAVYYCAREVHVDTAMDAYFDYWGQGTLVTVSS
VL: DIQMTQSPSSLSASVGDRVTITCRASQTISSYLNWYQQKPGKAPKLLIFAASSLQSGVPSRFSGSGSGTDFTLTISSLQPEDFATYYCQQSYSNPPLTFGGGTKVEIE
notes: also called 24G8-Biotin

Assays:
[1] = biological target: S1RBD-mFc (SARS-CoV-2 S1蛋白RBD与mFc的融合蛋白) (SARS-CoV-2)
[2] = biological target: S1RBD-his (SARS-CoV-2 S1蛋白RBD与His的融合蛋白) (SARS-CoV-2); experiment: BLI (Octet QKe), antibody captured on AHC sensor, S1RBD-His in solution, 1:1 fit
MERS-S1 = biological target: T1, MERS-S1 (MERS-CoV, UniProt K9N5Q8 18-725); experiment: ELISA
T1 construct: domain: S1

SARS-S1 = biological target: T2, SARS-S1 (SARS-CoV, UniProt P59594 14-667); experiment: ELISA
T2 construct: domain: S1

Binder | IC50 [1] [nM] | Kd [2] [nM] | koff [2] [s⁻¹] | kon [2] [M⁻¹ s⁻¹] | binding result (MERS-S1) | binding result (SARS-S1)
B1 | 23.1 | 7.7 | 0.00157 | 204000 | no binding | no binding
B2 | 11.4 | 1.08 | 0.000264 | 244000 | – | –
